In publication PMC2643475:

What was measured:
[1] = molecular target: α5β1-integrin (human (endogenous in T-HEp3)) (UniProt P05556)
[2] = molecular target: α5β1-integrin (human (endogenous in T-HEp3)) (UniProt P05556); test: co-IP; as a1, with 2.5 µM compound MS#479 added for the last 15 min of the IP
[3] = molecular target: α5β1-integrin (human (endogenous in T-HEp3)) (UniProt P05556); remark: listed apart in the source
[4] = molecular target: α5β1-integrin (human (endogenous in T-HEp3)) (UniProt P05556); remark: listed apart in the source

Sequence of UniProt P05556 (P05556 whole entry, looked up): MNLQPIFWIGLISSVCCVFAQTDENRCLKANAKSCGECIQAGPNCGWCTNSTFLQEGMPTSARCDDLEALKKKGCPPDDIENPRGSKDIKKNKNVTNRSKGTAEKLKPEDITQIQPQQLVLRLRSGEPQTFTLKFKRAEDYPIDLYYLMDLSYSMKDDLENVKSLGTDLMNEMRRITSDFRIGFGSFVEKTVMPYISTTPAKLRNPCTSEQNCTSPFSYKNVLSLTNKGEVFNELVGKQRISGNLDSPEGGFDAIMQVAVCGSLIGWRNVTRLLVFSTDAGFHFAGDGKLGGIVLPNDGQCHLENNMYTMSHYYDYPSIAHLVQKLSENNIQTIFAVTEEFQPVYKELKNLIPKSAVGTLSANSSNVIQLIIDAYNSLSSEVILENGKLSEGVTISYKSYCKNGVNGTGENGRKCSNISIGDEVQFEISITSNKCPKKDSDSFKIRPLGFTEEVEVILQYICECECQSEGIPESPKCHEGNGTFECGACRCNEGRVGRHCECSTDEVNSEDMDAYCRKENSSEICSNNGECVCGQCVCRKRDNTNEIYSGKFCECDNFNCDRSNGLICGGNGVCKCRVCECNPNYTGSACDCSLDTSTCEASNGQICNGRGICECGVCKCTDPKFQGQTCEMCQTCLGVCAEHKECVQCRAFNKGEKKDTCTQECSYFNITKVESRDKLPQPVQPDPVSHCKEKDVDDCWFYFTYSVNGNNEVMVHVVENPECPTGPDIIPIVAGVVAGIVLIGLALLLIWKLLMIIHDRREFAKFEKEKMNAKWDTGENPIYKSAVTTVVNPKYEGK

binding of HUTS-4 antibody (active conformation of β1 integrin) to T-HEp3 cells by FACS with 5 and 50 µM MS#479 or MS#305 [1]: 15%
percent reduction of the uPAR/integrin association with 2.5 µM MS#479 [2]: > 70%
luciferase activity (ERK reporter, units per mg of tumor protein) in T-HEp3 tumors on chick embryo CAMs treated daily with 10 µM MS#479; inhibition against diluent [3]: 85%
Elk1-GAL4 luciferase reporter of ERK activity in T-HEp3 cells treated for 16 hrs with 5 µM MS#479; inhibition against untreated control [4]: > 60%
Substance: urokinase receptor (uPAR) (from UniProt Q03405 23-305)
